Holding throughout (experiment): two-hybrid library CCNG1;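 further: natural log of median RNA to DNA barcode read ratio; higher means stronger binding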
One test has as its target T1, 4H570-bN.
T1 chain: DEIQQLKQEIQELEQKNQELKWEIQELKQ

In another test the target is T2, 4H850-bN.
T2 chain: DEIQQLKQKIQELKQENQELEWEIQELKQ

Another test has as its target T3, 4H3974-bN.
T3 chain: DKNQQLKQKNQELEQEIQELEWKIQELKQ

The next test deals with T4, 4H3858-bN.
T4 chain: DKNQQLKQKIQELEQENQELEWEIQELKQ

A further test addresses T5, O15.
T5 chain: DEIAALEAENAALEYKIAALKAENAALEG

For a further test, the target named is T6, P7A.
T6 chain: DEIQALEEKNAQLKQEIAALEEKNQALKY

The next test addresses T7, P6A.
T7 chain: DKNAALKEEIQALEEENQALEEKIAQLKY

For the next test, the target named is T8, P5A.
T8 chain: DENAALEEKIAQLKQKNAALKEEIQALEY

For another test, the target named is T9, P8A.
T9 chain: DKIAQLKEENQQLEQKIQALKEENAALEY

Another test addresses T10, P4A.
T10 chain: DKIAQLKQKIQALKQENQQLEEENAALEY

In another test the target is T11, P9A.
T11 chain: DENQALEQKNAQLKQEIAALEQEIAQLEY

The target of another test is T12, 4H4038-bH.
T12 chain: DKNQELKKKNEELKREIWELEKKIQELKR

A further test deals with T13, 4H3162-bA.
T13 chain: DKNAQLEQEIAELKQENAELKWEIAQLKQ

The target in a further test is T14, 4H3926-bA.
T14 chain: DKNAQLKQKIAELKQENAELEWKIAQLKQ

The target of another test is T15, 4H3858-bA.
T15 chain: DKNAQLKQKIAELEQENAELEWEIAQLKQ

In the next test the target is T16, 4H3613-bA.
T16 chain: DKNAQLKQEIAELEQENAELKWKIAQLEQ

A further test concerns the target T17, 4H3462-bA.
T17 chain: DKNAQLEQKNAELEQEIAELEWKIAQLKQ

For a further test, the target named is T18, 4H1985-bA.
T18 chain: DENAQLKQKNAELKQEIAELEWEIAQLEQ

For the next test, the target named is T19, 4H1899-bA.
T19 chain: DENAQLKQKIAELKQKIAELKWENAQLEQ

A further test has as its target T20, 4H3497-bA.
T20 chain: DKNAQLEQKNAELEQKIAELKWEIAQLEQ

The target of the next test is T21, 4H3628-bA.
T21 chain: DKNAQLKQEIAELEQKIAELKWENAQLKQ

The next test deals with T22, 4H3277-bA.
T22 chain: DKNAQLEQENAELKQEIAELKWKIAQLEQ

For another test, the target named is T23, 4H906-bA.
T23 chain: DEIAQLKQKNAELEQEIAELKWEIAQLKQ

The target of a further test is T24, 4H3817-bA.
T24 chain: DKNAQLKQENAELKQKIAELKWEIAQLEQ

A further test has as its target T25, 4H570-bA.
T25 chain: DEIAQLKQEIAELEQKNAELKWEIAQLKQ

In the next test the target is T26, 4H3175-bA.
T26 chain: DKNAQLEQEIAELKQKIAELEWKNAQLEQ

The target in another test is T27, 4H591-bA.
T27 chain: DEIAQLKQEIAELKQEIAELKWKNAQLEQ

In a further test the target is T28, 4H3974-bA.
T28 chain: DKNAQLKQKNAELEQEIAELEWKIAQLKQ

The next test concerns the target T29, 4H850-bA.
T29 chain: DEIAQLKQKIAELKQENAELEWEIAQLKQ

The next test concerns the target T30, 4H3298-bA.
T30 chain: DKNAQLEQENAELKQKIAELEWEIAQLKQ

For the next test, the target named is T31, 4H626-bA.
T31 chain: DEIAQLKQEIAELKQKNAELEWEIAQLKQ

Another test addresses T32, 4H2586-bN.
T32 chain: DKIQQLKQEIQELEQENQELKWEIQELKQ

In another test the target is T33, 4H953-bA.
T33 chain: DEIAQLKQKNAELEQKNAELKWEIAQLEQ

A further test has as its target T34, 4H908-bA.
T34 chain: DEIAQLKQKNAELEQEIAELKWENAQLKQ

In another test the target is T35, O5-bP.
T35 chain: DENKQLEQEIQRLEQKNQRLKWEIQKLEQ

A further test deals with T36, O14-bA.
T36 chain: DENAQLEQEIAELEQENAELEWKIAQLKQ

A further test concerns the target T37, 4H883-bA.
T37 chain: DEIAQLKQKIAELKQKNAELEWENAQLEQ

For the next test, the target named is T38, 4H918-bA.
T38 chain: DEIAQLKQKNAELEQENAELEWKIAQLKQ

A further test concerns the target T39, 4H967-bA.
T39 chain: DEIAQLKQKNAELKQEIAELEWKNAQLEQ

The target of a further test is T40, 4H584-bA.
T40 chain: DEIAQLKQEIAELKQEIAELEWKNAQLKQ

The target of a further test is T41, 4H3631-bA.
T41 chain: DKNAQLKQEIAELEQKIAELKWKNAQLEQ

The target in the next test is T42, 4H570-bH.
T42 chain: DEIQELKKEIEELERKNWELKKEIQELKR

The target in a further test is T43, 4H3172-bA.
T43 chain: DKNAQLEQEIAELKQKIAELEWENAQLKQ

A further test deals with T44, O8-bN.
T44 chain: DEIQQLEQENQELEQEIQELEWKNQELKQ

For another test, the target named is T45, 4H619-bA.
T45 chain: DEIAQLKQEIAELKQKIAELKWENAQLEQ

In another test the target is T46, 4H3129-bA.
T46 chain: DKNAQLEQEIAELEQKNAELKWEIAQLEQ

A further test has as its target T47, 4H3414-bA.
T47 chain: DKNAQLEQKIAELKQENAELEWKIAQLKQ

The target in the next test is T48, 4H3638-bA.
T48 chain: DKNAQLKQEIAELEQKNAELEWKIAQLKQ

The target of another test is T49, 4H3907-bH.
T49 chain: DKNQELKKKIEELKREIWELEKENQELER

Another test addresses T50, 4H470-bH.
T50 chain: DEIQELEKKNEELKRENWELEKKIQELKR

Another test has as its target T51, 4H3961-bH.
T51 chain: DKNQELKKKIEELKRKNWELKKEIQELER

In a further test the target is T52, O5-bS.
T52 chain: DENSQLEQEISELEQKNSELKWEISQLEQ

A further test addresses T53, O2-bS.
T53 chain: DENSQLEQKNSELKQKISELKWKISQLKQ

Another test has as its target T54, O16-bS.
T54 chain: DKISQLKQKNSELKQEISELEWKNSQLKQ

The next test concerns the target T55, O3-bS.
T55 chain: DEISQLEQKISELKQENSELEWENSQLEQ

A further test addresses T56, O6-bS.
T56 chain: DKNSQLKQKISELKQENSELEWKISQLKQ

Another test concerns the target T57, O4-bS.
T57 chain: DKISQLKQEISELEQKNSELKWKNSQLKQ

In another test the target is T58, O7-bS.
T58 chain: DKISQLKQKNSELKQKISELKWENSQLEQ

Another test has as its target T59, O8-bS.
T59 chain: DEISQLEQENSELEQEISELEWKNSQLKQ

For the molecule DKNQQLKQKIQELEQENQELEWEIQELKQ [4H3858-bN], the interaction score in the test with 4H570-bN is 0.143; in the test with 4H850-bN, -1.15; with 4H3974-bN, -1.21; in the test with 4H3858-bN, -0.115; with O15, -1.67.

DKIAQLKQKIQALKQENQQLEEENAALEY [P4A]: the interaction score with P7A was -2.13; in the test with P6A it was -1.35; in the test with P5A it was -2.12; with P8A it was -1.42; with P4A it was -2.18; in the test with P9A, -1.08.

Turning to DKNQELKKKNEELKREIWELEKKIQELKR [4H4038-bH], in the test with 4H4038-bH, the interaction score was determined as 0.656.

DENAQLKQKIAELKQKIAELKWENAQLEQ [4H1899-bA]: the interaction score in the test with 4H3162-bA is -1.28; with 4H3926-bA, -1.03; in the test with 4H3858-bA it was -0.565; with 4H3613-bA, -1.23; with 4H3462-bA, -0.31; with 4H1985-bA, 0.619. In addition, the interaction score with 4H1899-bA is -0.612; with 4H3497-bA, -0.482; with 4H3628-bA, 0.582; in the test with 4H3277-bA, -1.41; with 4H906-bA, -0.765; with 4H3817-bA, -0.216. Also, the interaction score with 4H570-bA was 0.517; in the test with 4H3175-bA, -1.03; in the test with 4H591-bA, -1.45; with 4H3974-bA, -0.528; with 4H850-bA, -0.973; with 4H3298-bA it was -0.142. Also, the interaction score was -1.38 in the test with 4H626-bA and -1.99 with 4H2586-bN.

As for DEIAQLKQKIAELKQKNAELEWENAQLEQ [4H883-bA], the interaction score in the test with 4H953-bA is -1.68; with 4H908-bA, -1.33; in the test with O5-bP, -1.74; with O14-bA it was 0.814; with 4H883-bA, -0.18; with 4H918-bA it was -1.15. Besides, the interaction score in the test with 4H967-bA was -1.69.

For DENAQLKQKNAELKQEIAELEWEIAQLEQ [4H1985-bA], the interaction score was -1.66 with 4H3162-bA; -1.42 with 4H584-bA; -1.21 with 4H3631-bA; -1.8 with 4H953-bA; -1.07 with 4H3926-bA; -0.714 with 4H570-bH. For the same molecule, the interaction score in the test with 4H3858-bA is -1.31; with 4H3613-bA it was -1.14; with 4H3462-bA, -0.708; in the test with 4H1985-bA, -0.898; in the test with 4H3172-bA it was -0.781; in the test with 4H3497-bA, -1.03. For the same molecule, the interaction score is -1.35 in the test with 4H3628-bA; -2.01 with O8-bN; -0.983 in the test with 4H3277-bA; -1.08 with 4H906-bA; -0.287 with 4H3817-bA; -1.97 in the test with 4H570-bA. The interaction score with 4H3175-bA was -1.53; with 4H591-bA, -1.46; with 4H619-bA it was -0.916; with 4H3974-bA, -0.265; with 4H3129-bA, -1.14; with 4H850-bA it was -1.45. Besides, the interaction score was -1.09 with 4H3414-bA, -0.906 with 4H3298-bA, -1.19 in the test with 4H626-bA and -0.944 with 4H3638-bA.

For DKNQELKKKIEELKREIWELEKENQELER [4H3907-bH], the interaction score with 4H3907-bH is 0.462; with 4H470-bH, -0.458; in the test with 4H4038-bH, -0.272; in the test with 4H3961-bH, -0.402.

For the molecule DKISQLKQKNSELKQEISELEWKNSQLKQ [O16-bS], the interaction score with O5-bS is -3.22; with O2-bS it was -0.368; in the test with O16-bS, -1.23; with O3-bS, -1.15; in the test with O6-bS, -0.0299; with O4-bS, -0.194. For the same molecule, the results for the interaction score with O7-bS and with O8-bS were -0.709 and -1.97, respectively.

(Values after PMC10397247.)
